Test [1] deals with T1, SXM1 (native, from EBY100 lysate) (Saccharomyces cerevisiae, UniProt Q04175 1-944).
T1 construct: mature; Endogenous untagged protein; also called YDR395W
T1 sequence (looked up): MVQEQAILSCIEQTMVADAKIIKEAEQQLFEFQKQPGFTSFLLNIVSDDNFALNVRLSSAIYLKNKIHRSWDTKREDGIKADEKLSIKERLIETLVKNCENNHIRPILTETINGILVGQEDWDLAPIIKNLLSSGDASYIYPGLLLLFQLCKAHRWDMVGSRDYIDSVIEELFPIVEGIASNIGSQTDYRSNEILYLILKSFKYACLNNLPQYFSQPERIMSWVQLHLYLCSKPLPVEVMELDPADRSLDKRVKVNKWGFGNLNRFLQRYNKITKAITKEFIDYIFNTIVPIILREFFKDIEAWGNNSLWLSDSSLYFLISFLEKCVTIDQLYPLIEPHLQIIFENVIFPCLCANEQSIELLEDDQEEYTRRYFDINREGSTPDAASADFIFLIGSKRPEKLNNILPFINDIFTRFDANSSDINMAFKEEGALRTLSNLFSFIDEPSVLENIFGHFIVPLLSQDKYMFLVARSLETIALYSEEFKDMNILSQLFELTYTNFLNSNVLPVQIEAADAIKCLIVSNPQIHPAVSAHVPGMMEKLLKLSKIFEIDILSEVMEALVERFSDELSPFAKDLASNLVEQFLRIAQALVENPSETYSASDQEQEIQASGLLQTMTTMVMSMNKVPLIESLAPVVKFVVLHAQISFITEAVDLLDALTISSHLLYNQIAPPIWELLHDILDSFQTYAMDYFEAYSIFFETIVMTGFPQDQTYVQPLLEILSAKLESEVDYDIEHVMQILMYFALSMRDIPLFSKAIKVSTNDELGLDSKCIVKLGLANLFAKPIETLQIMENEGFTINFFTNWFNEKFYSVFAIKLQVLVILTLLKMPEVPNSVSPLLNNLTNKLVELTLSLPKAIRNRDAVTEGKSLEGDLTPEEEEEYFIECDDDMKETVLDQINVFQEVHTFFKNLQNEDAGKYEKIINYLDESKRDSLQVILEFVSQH
The experiment in a line: co-IP, Nb on NHS-agarose beads, EBY100 yeast lysate, SDS-PAGE.

In test [2] the target is T2, GFP-tagged SXM1 (Saccharomyces cerevisiae, UniProt Q04175 1-944).
T2 construct: Yeast GFP Fusion Collection strain; also called Yeast GFP fusion collection GFP(+)04, H9; not shown: GFP tag
T2 sequence (looked up): T1 sequence (looked up)
The test is described as follows: co-immunoprecipitation, Nb coupled to NHS-agarose beads, lysate of the yeast strain expressing the GFP-tagged target, Western blot anti-GFP. How it is done:
One SXM1-specific Nanobody (30=Nb clone CA17530 corresponding to SEQ ID NO: 18) was characterized by co-immunoprecipitation assays. The SXM1-specific Nanobody was covalently linked to NHS-agarose beads. The beads that were functionalized with this SXM1-specific Nanobody were incubated for an hour at 4° C. on a rotating device with either an EBY100 lysate or the lysate of the engineered Yeast strain expressing SXM1 GFP(+)04, H9) as a GFP-tagged protein. After washing, these beads were resuspended in SDS-PAGE loading dye and analyzed on SDS-PAGE (FIG. 9A). Separated proteins were transferred to a PVDF membrane and the Western blot (FIG. 9B) was developed with GFP-specific antibody to confirm the presence of GFP-tagged SXM1.
For orientation: Immunoblotting shows a protein as a band on a membrane.

In test [3] the target is T3, SIS1 (native, from EBY100 lysate) (Saccharomyces cerevisiae, UniProt P25294 1-352).
T3 construct: mature; Endogenous untagged protein; also called YNL007C
T3 sequence (looked up): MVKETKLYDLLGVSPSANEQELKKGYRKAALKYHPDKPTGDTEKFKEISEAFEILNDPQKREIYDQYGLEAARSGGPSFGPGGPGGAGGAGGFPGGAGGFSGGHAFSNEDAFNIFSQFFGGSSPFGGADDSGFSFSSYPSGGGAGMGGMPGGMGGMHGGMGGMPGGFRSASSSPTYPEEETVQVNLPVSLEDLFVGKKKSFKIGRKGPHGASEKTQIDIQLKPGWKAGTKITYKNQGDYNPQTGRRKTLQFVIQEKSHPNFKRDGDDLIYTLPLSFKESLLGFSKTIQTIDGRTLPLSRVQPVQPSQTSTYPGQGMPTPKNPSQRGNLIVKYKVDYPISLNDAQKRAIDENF
The experiment in a line: co-IP, Nb on NHS-agarose beads, EBY100 yeast lysate, SDS-PAGE.

In test [4] the target is T4, GFP-tagged SIS1 (Saccharomyces cerevisiae, UniProt P25294 1-352).
T4 construct: Yeast GFP Fusion Collection strain; also called Yeast GFP fusion collection GFP(+)22, E5; not shown: GFP tag
T4 sequence (looked up): T3 sequence (looked up)
The experiment in a line: co-immunoprecipitation, Nb coupled to NHS-agarose beads, lysate of the yeast strain expressing the GFP-tagged target, Western blot anti-GFP. How it is done:
One SIS1-specific Nanobody (44=Nb clone CA17444 corresponding to SEQ ID NO: 9), three ALD6-specific Nanobodies (53=CA17453-SEQ ID NO: 10, 54=CA17454-SEQ ID NO: 11, 60=CA17460-SEQ ID NO: 12), two BMH1-specific Nanobodies (58=CA17458-SEQ ID NO: 13, 59=CA17459-SEQ ID NO: 14) were characterized by co-immunoprecipitation assays. Each target-specific Nanobodies was covalently linked to NHS-agarose beads. The beads that were functionalized with these target-specific Nanobodies were incubated for an hour at 4° C. on a rotating device with either an EBY100 lysate or the lysate of the engineered Yeast strain expressing the target (Yeast GFP fusion collection reference for SIS1: GFP(+)22, E5, for ALD6: GFP(+)15, F1, for BMH1: GFP(+)27, D5) as a GFP-tagged protein. After washing, these beads were resuspended in SDS-PAGE loading dye and analyzed on SDS-PAGE (FIG. 8A). Separated proteins were transferred to a PVDF membrane and the Western blot (FIG. 8B) was developed with GFP-specific antibody to confirm the presence of GFP-tagged targets.

Test [5] deals with T5, BMH1 (native, from EBY100 lysate) (Saccharomyces cerevisiae, UniProt P29311 2-267).
T5 construct: mature; Endogenous untagged protein; also called YER177W
T5 sequence (looked up): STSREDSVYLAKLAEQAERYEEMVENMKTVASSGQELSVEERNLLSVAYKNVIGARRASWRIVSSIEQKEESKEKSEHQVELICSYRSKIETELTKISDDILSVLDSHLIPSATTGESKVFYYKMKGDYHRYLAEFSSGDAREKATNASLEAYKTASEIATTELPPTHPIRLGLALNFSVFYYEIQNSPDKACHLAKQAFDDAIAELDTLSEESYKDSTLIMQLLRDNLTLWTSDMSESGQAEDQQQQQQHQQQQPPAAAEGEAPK
The experiment in a line: co-IP, Nb on NHS-agarose beads, EBY100 yeast lysate, SDS-PAGE.

In test [6] the target is T6, GFP-tagged BMH1 (Saccharomyces cerevisiae, UniProt P29311 2-267).
T6 construct: Yeast GFP Fusion Collection strain; also called Yeast GFP fusion collection GFP(+)27, D5; not shown: GFP tag
T6 sequence (looked up): T5 sequence (looked up)
The test is described as follows: co-IP, Nb on NHS-agarose beads, lysate of GFP-fusion yeast strain, SDS-PAGE and anti-GFP Western blot. The text has this: After washing, these beads were resuspended in SDS-PAGE loading dye and analyzed on SDS-PAGE (FIG. 8A). Separated proteins were transferred to a PVDF membrane and the Western blot (FIG. 8B) was developed with GFP-specific antibody to confirm the presence of GFP-tagged targets.
For each target selection of binders in this example, as detailed in Table 2, after 3 rounds of selection by panning using NANEX technology, individual clones were isolated from the enriched sub-library by plating tenfold serial dilutions of the overnight-grown phage-infected E. coli TG1 cells in LB. 96 individual clones were picked and grown in a 96-well plate containing LB supplemented with 100 μg/ml ampicillin. Plasmids containing the Nanobody encoding genes were purified, sequenced and grouped into sequence families (Material and methods). A representative member of each sequence family was selected. Their encoding plasmid was transformed into the E. coli WK6 expression strain to express and purify each Nanobody of interest. […] After washing, these beads were resuspended in SDS-PAGE loading dye and analyzed on SDS-PAGE (as in the Figure specified in Table 2 for each target). […] For each target-specific Nanobody analysed in this way, the co-immunoprecipitation with the EBY100 lysate gives a predominant band corresponding to the expected molecular weight of the target protein. […]

In test [7] the target is T7, Rat Vesicular GLUtamate Transporter 1 (full-length, HEK293T lysate of Example 7) (rat, UniProt Q62634 1-560).
T7 construct: mature; Produced in HEK293T cells as published (Schenck et al., 2017), solubilised in DDM; also called rVGLUT1; rat VGLUT1
T7 sequence (looked up): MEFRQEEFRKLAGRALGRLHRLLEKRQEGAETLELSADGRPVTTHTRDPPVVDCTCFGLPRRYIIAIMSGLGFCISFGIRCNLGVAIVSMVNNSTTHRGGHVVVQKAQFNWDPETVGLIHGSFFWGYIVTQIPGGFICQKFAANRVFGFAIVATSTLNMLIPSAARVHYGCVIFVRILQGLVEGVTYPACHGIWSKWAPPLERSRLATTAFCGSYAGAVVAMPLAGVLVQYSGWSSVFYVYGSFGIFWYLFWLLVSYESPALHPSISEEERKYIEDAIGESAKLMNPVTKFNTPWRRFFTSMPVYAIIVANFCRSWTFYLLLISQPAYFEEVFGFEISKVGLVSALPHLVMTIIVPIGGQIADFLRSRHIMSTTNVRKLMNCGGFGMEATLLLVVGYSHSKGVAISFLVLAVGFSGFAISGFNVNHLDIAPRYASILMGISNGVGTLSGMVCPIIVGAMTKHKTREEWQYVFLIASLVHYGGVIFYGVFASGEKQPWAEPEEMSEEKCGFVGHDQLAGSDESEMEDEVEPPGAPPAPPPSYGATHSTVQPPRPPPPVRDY
The test is described as follows: NANEX: capture from DDM lysate of HEK293T cells, elution with the same Nb.

Test [8] deals with T8, GFP protein (Aequorea victoria (Water jellyfish) …, UniProt P42212 1-238 = GFP, biotinylated with the EZ-Link sulfo-NHS-LC-biotinylation kit for the BLI assay; unmodified in the NANEX selections).
T8 construct: Purified GFP; also called wild type GFP; biotinylated GFP
The experiment in a line: method not stated.

Among the data in patent US20240287501A1 (VIB VZW, published 2024) are binding result and Kd values, retold here.

B1: CA17530 (VHH)
VHH: QVQLVESGGGLVQTGGSLRLSCVVSKTLFSINAMAWYRQSPGKPRELVAGWTSGGRTSYGDSVKGRFTISRDNAENTLYLQMNDVKPEDTAVYHCAADYLVVAGKPGYDYAYWGQGTQVTVSS
notes: C-terminal 6xHis-EPEA tag is part of the entry
Consider B1, for which the binding result in test [1] and in test [2] was “binds” in each case.

B2: CA17444 (VHH)
VHH: QVQLVESGGGLVQPGGSLRLSCAASGFTLDYYAIGWFRQAPGKEREGVSCISSSDGSTVYADSVKGRFTISRDNAKNTVYLQMSNLKPEDTAVYYCATDQITSTGCPDFDSWGQGTQVTVSS
notes: as for B1
Take B2: the binding result in test [3] and in test [4] was “binds” each time.

B3: CA17459 (VHH)
VHH: QVQLVESGGGEVQTGGSLRLSCTASGSRLNFGSWNWYRKRGENYRELVAAMGPSTGHTHYGDSMKGRVTISLNAAKDTLFLQMNSLKPEDTAVYYCAADLDGLGFPRGSFYGMDYWGKGTQVTVSS
notes: as for B1
Consider B3, for which the binding result in test [5] and in test [6] was “binds” each time.

B4: CA17875 (VHH)
VHH: QVQLQESGGGLVQAGGSLRLSCAASGRSVRTWSMGWFRQPPGKERELVAGISWSGSGTYHADSVKGRFTISRDNAKNMVYLQMNSLKPEDTAVYYCAAGQTGWNPGSDFHRWGKGTQVTVSS
notes: C-terminal 6xHis-EPEA tag is part of the entry; also called rVGLUT1-specific trapper/stripper
Consider B4, for which the binding result in test [7] is “binds”.

B5: CA15816 (VHH)
VHH: QVQLVESGGGLVQAGGSLRLSCAASGRTFSTAAMGWFRQAPGKERDFVAGIYWAAGSTYYADSAKGRFTISRDNAKNTVYLQMDSLKPEDTAVYYCAARRRGFTLAPTRANEYDYWGQGTQVTVSS
notes: C-terminal 6xHis-EPEA tag is part of the entry, which already carries T54A/V55A; also called GFP trapper; GFP-specific trapper
Take B5: the affinity in test [8], expressed as Kd, was 2.7 nM.

What is called Kd is the free concentration of one partner at which half of the binding sites on the other are occupied at equilibrium, for simple one-to-one binding. Lower therefore signals tighter binding.
